Test results from patent US20210369812A1, “OSTEOINDUCTIVE PEPTIDES, COMPOSITIONS, IMPLANTS, AND METHODS OF USE” (The Board of Regents of the University of Oklahoma, priority 2018, published 2021).

Experiments:
BMPR2 = target: T1, BMPR2 (Homo sapiens, UniProt Q13873); assay: Enzyme-linked immune sorbent assay for receptor binding (BMPR2); conditions: peptide on p3 of M13 phage; absorbance 450 nm; n=4; vs wild type phage
T1 construct: purchased G&P Biosciences
T1 sequence (Q13873 27-150 limits assumed): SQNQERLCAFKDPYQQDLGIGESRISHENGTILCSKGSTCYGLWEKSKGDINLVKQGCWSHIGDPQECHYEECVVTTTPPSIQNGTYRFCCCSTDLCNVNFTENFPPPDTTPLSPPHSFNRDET
Source text: Groups having the same lowercase letter assigned (above the bar) were not statistically different from each other. Groups having different letters assigned (above the bar) were statistically different from each other. […] The primary antibody was mouse anti-g3p (p8) IgG. The secondary antibody was anti-mouse IgG conjugated with horseradish peroxidase. The substrate, 3,3′,5,5′-Tetramethylbenzidine was detected at 450 nm after stopping the reaction with 1 M HCl.
Blocking buffer (0.1 M NaHCO3 (pH 8.6), 5 mg/ml BSA. Filter sterilized, stored at 4° C.) was prepared. TBS (50 mM Tris-HCl (pH 7.5), 150 mM NaCl, autoclaved, stored at room temperature) was prepared. Separate solutions of the target receptors were then made. For BMPR1A, a 10 μg/ml stock solution was made. For BMPR2, a 10 μg/ml solution was also made. Separate wells with n=4 for each different peptide bearing phage group were then coated with one of the receptors. […] After a brief pilot test, it should be noted that using 10^10 phage/ml was determined to work best, but other concentrations of virus also worked consistently. […] Then, […] of freshly prepared 3,3′,5,5′-Tetramethylbenzidine (TMB) was added to each well and the absorbance at 370 nm and 652 nm was monitored for 1 hour using an ELISA plate reader. […] The absorbance at 450 nm for each well was then measured.

[1] = test system: rat radial bone defect model; assay: Histological staining (HE, Von Kossa) of implanted scaffolds; assay type: in vivo; conditions: 4-week implants
Source text: After 4 weeks and 12 weeks, animals (N=5) were euthanized by CO2 asphyxiation. The sections of the arms containing the implant (at the radius bone) were then cut way from the rest of the animal using bone cutters. The 4-week implant samples were fixed in 10% (w/v) neutral formalin solution for 4 days. The 12-week samples were fixed in 4% paraformaldehyde for 4 days. Paraformaldehyde was used as it can produce better CD31 vascularization stains relative to fixing with formalin. The samples were then placed in a solution of 70% ethanol to 30% water (v/v).
The tissue sections were deparaffinized and hydrated with distilled water. Hematoxylin was applied to the sample with enough volume to cover the tissue section followed by incubation for 5 min. The mounted tissue slide was then rinsed in 2 changes of distilled water (sections were allowed to soak for 15 sec on each exchange of water). Enough Bluing Reagent was then added to the tissue section to completely cover it followed by incubation for 10-15 sec. The slides were then rinsed again in 2 changes of distilled water allowing 15 sec of contact with the water each time. The slides were then dipped in 100% ethanol for 10 sec. The excess ethanol was blotted off. Enough Eosin Y Solution was then added to completely cover the tissue section followed by incubation for 2-3 min. The slides were then rinsed in 100% ethanol for 10 sec. […]

| Sequence | Relative binding strength in ELISA to BMPR2 (BMPR2) | New bone tissue / calcium deposits (Von Kossa stain) [1] |
| --- | --- | --- |
| SGTQDSMVGWNK (Completely synthesized in the lab - Ph.D.-12 Phage Display Peptide Library Kit (New England Biolabs)) | statistically significant binders | – |
| VHVPLHRGAVSA (Completely synthesized in the lab - Ph.D.-12 Phage Display Peptide Library Kit (New England Biolabs)) | – | New bone tissue was observed to be best |
